The results in this text go back to the supplement of paper PMC9112550, “Optimization of the antimicrobial peptide Bac7 by deep mutational scanning” (BMC Biology, 2022).

This data set has as its system Escherichia coli TOP10. As to the kind of experiment: shrunken log2 fold change of peptide-encoding DNA abundance (4.5 h post-induction vs induction); higher = less antimicrobial activity (less host growth inhibition). The following applies: time post-induction: 4.5 h; library: site-saturation at positions 5, 18, 19, 20.
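Further: peptides expressed intracellularly from a pBAD plasmid library in pooled LB shake-flask culture, induced with 0.3% L-arabinose, DNA abundance read by NGS, three biological replicates, DESeq2 with apeglm shrinkage.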

On to RRIRKRPPRLPRPRPRPWYNPRP, for which the “shrunken log2 fold change” value is -0.00192. As to RRIRTRPPRLPRPRPRPNDRPRP, the “shrunken log2 fold change” value was determined as 0.21. The same measure for RRIRERPPRLPRPRPRPGPSPRP: -0.109; for RRIRWRPPRLPRPRPRPNEGPRP: -0.0387.

Turning to RRIRLRPPRLPRPRPRPSSDPRP, the “shrunken log2 fold change” value was 0.128. On to RRIRQRPPRLPRPRPRPRSSPRP, for which the “shrunken log2 fold change” value amounted to 0.0377.

For the sequence RRIRNRPPRLPRPRPRPGCWPRP, the “shrunken log2 fold change” value stood at 0.55. Consider RRIRKRPPRLPRPRPRPGAIPRP, for which the “shrunken log2 fold change” value was 0.238. As for RRIRCRPPRLPRPRPRPCQTPRP, the “shrunken log2 fold change” value is -0.7. Turning to RRIRVRPPRLPRPRPRPYQDPRP, the “shrunken log2 fold change” value was -1.42. Take RRIRTRPPRLPRPRPRPSQWPRP: the “shrunken log2 fold change” value was -0.168. Take RRIRPRPPRLPRPRPRPQQAPRP: the “shrunken log2 fold change” value came out at 0.106. The same measure for RRIRQRPPRLPRPRPRPPSQPRP: 0.0863; for RRIRIRPPRLPRPRPRPSKEPRP: -0.202; for RRIRFRPPRLPRPRPRPCQCPRP: -0.035. For RRIRTRPPRLPRPRPRPSMTPRP, the “shrunken log2 fold change” value was -0.401. Turning to RRIRMRPPRLPRPRPRPRKDPRP, the “shrunken log2 fold change” value came out at 0.61.

Take RRIRFRPPRLPRPRPRPICPPRP: the “shrunken log2 fold change” value is -0.208. Take RRIRMRPPRLPRPRPRPESDPRP: the “shrunken log2 fold change” value was 3.34. RRIRMRPPRLPRPRPRPGYDPRP: the “shrunken log2 fold change” value turned out to be 0.0865.

As to RRIRRRPPRLPRPRPRPRSSPRP, the “shrunken log2 fold change” value came out at 0.0954. Consider RRIRWRPPRLPRPRPRPYHRPRP, for which the “shrunken log2 fold change” value is -0.201. Take RRIRWRPPRLPRPRPRPGIWPRP: the “shrunken log2 fold change” value came to 0.217. With RRIRYRPPRLPRPRPRPMYSPRP, the “shrunken log2 fold change” value was -0.018. Next, RRIRERPPRLPRPRPRPSRWPRP: 1.41. Next, RRIRFRPPRLPRPRPRPFYEPRP: -0.886. Turning to RRIRSRPPRLPRPRPRPLTVPRP, the “shrunken log2 fold change” value was -0.216. The same measure for RRIRFRPPRLPRPRPRPHLMPRP: -0.149; for RRIRSRPPRLPRPRPRPWNRPRP: -0.125. Next, RRIRMRPPRLPRPRPRPYNTPRP: -0.862. Take RRIRPRPPRLPRPRPRPWTYPRP: the “shrunken log2 fold change” value is -0.0785. Next, RRIRPRPPRLPRPRPRPEYMPRP: -0.193; RRIRYRPPRLPRPRPRPSLIPRP: -1.15. Take RRIRPRPPRLPRPRPRPYTGPRP: the “shrunken log2 fold change” value was -0.6. Take RRIRVRPPRLPRPRPRPWSEPRP: the “shrunken log2 fold change” value was -0.00215. For RRIRRRPPRLPRPRPRPGPTPRP, the “shrunken log2 fold change” value turned out to be 0.678. As for RRIRLRPPRLPRPRPRPRITPRP, the “shrunken log2 fold change” value was -0.027. As to RRIRERPPRLPRPRPRPGLGPRP, the “shrunken log2 fold change” value was determined as 0.602.

RRIRWRPPRLPRPRPRPGAVPRP: the “shrunken log2 fold change” value worked out at 0.745. On to RRIRGRPPRLPRPRPRPRQNPRP, for which the “shrunken log2 fold change” value is 0.768.

On to RRIRCRPPRLPRPRPRPIFQPRP, for which the “shrunken log2 fold change” value was -0.0452. As to RRIRYRPPRLPRPRPRPWWQPRP, the “shrunken log2 fold change” value is -0.00151. Regarding RRIRSRPPRLPRPRPRPKRQPRP, the “shrunken log2 fold change” value amounted to 0.000345. Consider RRIRQRPPRLPRPRPRPRKSPRP, for which the “shrunken log2 fold change” value is -0.172. As to RRIRWRPPRLPRPRPRPFQKPRP, the “shrunken log2 fold change” value came to 0.0262.

Consider RRIRNRPPRLPRPRPRPQQNPRP, for which the “shrunken log2 fold change” value came to 0.00594. Next, RRIRHRPPRLPRPRPRPAEMPRP: -0.01; RRIRLRPPRLPRPRPRPHNTPRP: -0.61; RRIRFRPPRLPRPRPRPMYQPRP: -0.167. For RRIRVRPPRLPRPRPRPNYRPRP, the “shrunken log2 fold change” value was 0.0968.

Turning to RRIRVRPPRLPRPRPRPGMRPRP, the “shrunken log2 fold change” value stood at 0.565. The same measure for RRIRWRPPRLPRPRPRPAGFPRP: 0.272. As to RRIRRRPPRLPRPRPRPSFMPRP, the “shrunken log2 fold change” value was -0.106. The same measure for RRIRYRPPRLPRPRPRPRQDPRP: -0.216; for RRIRHRPPRLPRPRPRPNNAPRP: -0.11; for RRIRIRPPRLPRPRPRPTICPRP: -0.191. For RRIRPRPPRLPRPRPRPQYQPRP, the “shrunken log2 fold change” value is -0.263. Next, RRIRHRPPRLPRPRPRPRHYPRP: -0.285; RRIRTRPPRLPRPRPRPQEMPRP: -0.0617. The same measure for RRIRNRPPRLPRPRPRPKLYPRP: -0.289; for RRIRSRPPRLPRPRPRPVIRPRP: -0.213. With RRIRDRPPRLPRPRPRPTQCPRP, the “shrunken log2 fold change” value is -0.0857.

Regarding RRIRGRPPRLPRPRPRPSQKPRP, the “shrunken log2 fold change” value stood at 0.0248. The same measure for RRIRHRPPRLPRPRPRPLNNPRP: -0.684; for RRIRYRPPRLPRPRPRPRQNPRP: 0.345.

As to RRIRTRPPRLPRPRPRPLERPRP, the “shrunken log2 fold change” value is -0.0732. With RRIRSRPPRLPRPRPRPRVYPRP, the “shrunken log2 fold change” value was -0.348. RRIRARPPRLPRPRPRPGFQPRP: the “shrunken log2 fold change” value was 0.092.

Take RRIRYRPPRLPRPRPRPWYYPRP: the “shrunken log2 fold change” value was -0.00865. The same measure for RRIRWRPPRLPRPRPRPVNYPRP: -0.122; for RRIRDRPPRLPRPRPRPFSVPRP: -0.0199. Next, RRIRSRPPRLPRPRPRPHQWPRP: -0.144; RRIRHRPPRLPRPRPRPNAMPRP: -0.0505. RRIRVRPPRLPRPRPRPYLEPRP: the “shrunken log2 fold change” value is -0.141. For RRIRDRPPRLPRPRPRPQWDPRP, the “shrunken log2 fold change” value was 0.101. The same measure for RRIRLRPPRLPRPRPRPYREPRP: -0.134.

For the sequence RRIRIRPPRLPRPRPRPMELPRP, the “shrunken log2 fold change” value was -0.000689.

For the sequence RRIRFRPPRLPRPRPRPAERPRP, the “shrunken log2 fold change” value was 0.0603.

Regarding RRIRDRPPRLPRPRPRPCMNPRP, the “shrunken log2 fold change” value is 0.119. On to RRIRVRPPRLPRPRPRPLAHPRP, for which the “shrunken log2 fold change” value was 0.00485. For the sequence RRIRCRPPRLPRPRPRPSGFPRP, the “shrunken log2 fold change” value is -0.218. Turning to RRIRNRPPRLPRPRPRPGTNPRP, the “shrunken log2 fold change” value was -0.0826. RRIRRRPPRLPRPRPRPPVHPRP: the “shrunken log2 fold change” value was 0.197.

For RRIRHRPPRLPRPRPRPRMLPRP, the “shrunken log2 fold change” value was -0.192. As to RRIRERPPRLPRPRPRPCLLPRP, the “shrunken log2 fold change” value is -0.0977.

In the case of RRIRNRPPRLPRPRPRPTNWPRP, the “shrunken log2 fold change” value worked out at 0.31.

In the case of RRIRYRPPRLPRPRPRPPMSPRP, the “shrunken log2 fold change” value was -0.612. The same measure for RRIRNRPPRLPRPRPRPNSYPRP: -0.299. Next, RRIRMRPPRLPRPRPRPVFIPRP: -0.137; RRIRFRPPRLPRPRPRPGQAPRP: 0.0631; RRIRMRPPRLPRPRPRPHDLPRP: -0.0136. As for RRIRMRPPRLPRPRPRPIWFPRP, the “shrunken log2 fold change” value stood at 0.1.

On to RRIRCRPPRLPRPRPRPMLQPRP, for which the “shrunken log2 fold change” value is 0.0596. The same measure for RRIRVRPPRLPRPRPRPPECPRP: -0.186; for RRIRKRPPRLPRPRPRPFCQPRP: 0.212.

As for RRIRFRPPRLPRPRPRPFEKPRP, the “shrunken log2 fold change” value is -0.0749. Turning to RRIRRRPPRLPRPRPRPMYTPRP, the “shrunken log2 fold change” value was -0.219. With RRIRHRPPRLPRPRPRPGHQPRP, the “shrunken log2 fold change” value is -0.149. With RRIRHRPPRLPRPRPRPKVCPRP, the “shrunken log2 fold change” value was -0.19. Consider RRIRERPPRLPRPRPRPMMPPRP, for which the “shrunken log2 fold change” value came to 0.0391.

Turning to RRIRSRPPRLPRPRPRPEDPPRP, the “shrunken log2 fold change” value worked out at 0.931. In the case of RRIRGRPPRLPRPRPRPSNCPRP, the “shrunken log2 fold change” value was 0.0376. On to RRIRGRPPRLPRPRPRPTCYPRP, for which the “shrunken log2 fold change” value turned out to be 0.34.

With RRIRQRPPRLPRPRPRPQWQPRP, the “shrunken log2 fold change” value is 0.16. Next, RRIRFRPPRLPRPRPRPITSPRP: -0.178; RRIRQRPPRLPRPRPRPVSAPRP: 0.104. RRIRDRPPRLPRPRPRPPGDPRP: the “shrunken log2 fold change” value is 1.29. In the case of RRIRERPPRLPRPRPRPHQWPRP, the “shrunken log2 fold change” value is -0.199. Take RRIRIRPPRLPRPRPRPVFRPRP: the “shrunken log2 fold change” value is -0.169. The same measure for RRIRRRPPRLPRPRPRPRLEPRP: 0.508. On to RRIRGRPPRLPRPRPRPLRKPRP, for which the “shrunken log2 fold change” value is 1.12.

For RRIRGRPPRLPRPRPRPEHLPRP, the “shrunken log2 fold change” value came to 0.494. With RRIRRRPPRLPRPRPRPHGHPRP, the “shrunken log2 fold change” value turned out to be 0.224. Regarding RRIRYRPPRLPRPRPRPHNGPRP, the “shrunken log2 fold change” value is -0.0705. As to RRIRSRPPRLPRPRPRPKLNPRP, the “shrunken log2 fold change” value is -0.103. The same measure for RRIRFRPPRLPRPRPRPSATPRP: 0.0473; for RRIRGRPPRLPRPRPRPVEAPRP: 0.997; for RRIRYRPPRLPRPRPRPFITPRP: -0.709. RRIRMRPPRLPRPRPRPVFWPRP: the “shrunken log2 fold change” value turned out to be 0.884. As to RRIRDRPPRLPRPRPRPREKPRP, the “shrunken log2 fold change” value was 0.342.

On to RRIRYRPPRLPRPRPRPAHKPRP, for which the “shrunken log2 fold change” value was 0.00824. On to RRIRGRPPRLPRPRPRPKPLPRP, for which the “shrunken log2 fold change” value came out at 0.375. Turning to RRIRYRPPRLPRPRPRPWCMPRP, the “shrunken log2 fold change” value is -0.383. As to RRIRKRPPRLPRPRPRPSTQPRP, the “shrunken log2 fold change” value was 0.169. Consider RRIRMRPPRLPRPRPRPICTPRP, for which the “shrunken log2 fold change” value turned out to be 0.153.
